Assay results from the RNAGym collection of RNA variant scans (doi:10.7554/elife.80360).

B1: HDV Ribozyme (parent)
chain: GGCCGGCAUGGUCCCAGCCUCCUCGCUGGCGCCGGCUGGGCAACAUUCCGAGGGGACCGUCCCCUCGGUAAUGGCGAAUGGGACCCA

Variants of: B1
Assay: self-cleavage, relative activity (ratio to wild type); higher = more cleavage; co-transcriptional

| Variant | self-cleavage |
| --- | --- |
| GGCCGGCAUGGUGCCAGCCUCCUCGCUGGCGCCGGCUGGGCAAAAUUCCGAGGGGACCGUCCCCUCGGUAAUGGCGAAUGGGACCCA | 0.0449 |
| GGCCGGCAUGGUCCCAGCCUCCUCGCUGGCGCCGGCAGGGCAACAUUCCGAGGGGACCGUCCCCUCGGUAAUGGCGAAUGGGACCCG | 0.0989 |
| GGACGGCAUGGUCCCAGCCUCCUCGCUGGCGCCGGCUGGGCAACAUUCCGAGGGGACCGUCCCCUCGGUAAUGGCGAAUGAGACCCA | 0.054 |
| GGCCGGCAUGGUCCCAGCCUCCUCGCUGGCGCCGACUGGGCAACAUUCCCAGGGGACCGUCCCCUCGGUAAUGGCGAAUGGGACCCA | 0.346 |
| GGCCGGAAUGGUCCCAGCCUCCUCGCUGUCGCCGGCUGGGCAACAUUCCGAGGGGACCGUCCCCUCGGUAAUGGCGAAUGGGACCCA | 0.0875 |
| GGCCGGCAUGGUCCCAGCCUCCUCGCUGGCGCCGGCUGGGCAACAUUCCGAGGGGACCGUCCCCUCCGUAAUGGCGAAUCGGACCCA | 0.189 |
| GGCCGGCAUGGUCCCAGACUCCUCGCUGGCGCCGGCUGGGCAACAUUCCGAGGGGACCGUCCCCUCGGUAAUGGCGAAUGGGCCCCA | 0.0831 |
| GGCCGGCAUGGUCCCAGCCUCCUCGCUGGCGCCGGCUGGGCAACAUUCCGAGGGUACCGUCCCCUCGGUAAUGGUGAAUGGGACCCA | 0.168 |
| GGCCGGCAUUGUCCCAGCCUCCUCGCUGGCGCCGGCUGGGCAACACUCCGAGGGGACCGUCCCCUCGGUAAUGGCGAAUGGGACCCA | 0.352 |
| GGCCGGCAUGGUCCCAGCCUCCUCGCUGGCGCCGGCUGGGCAACAUUACGAGGGGACCGUCCCCUCGGUAAUGGCGAAUGUGACCCA | 0.338 |
| GGCCGGCAUGGUCCCAGCCUCCUCGCUGGCGCCGGCUGGGCAACAUUCCGAGGGGACCGUCCCCUUGAUAAUGGCGAAUGGGACCCA | 0.92 |
| GGCCGGCAAGGUCCCAGCCUCCUCGCUGGCGCCGGCUGGGCAACAUUCCGAGGGGUCCGUCCCCUCGGUAAUGGCGAAUGGGACCCA | 0.867 |
| GGCCGGCAUGGUCCCAGCCUGCUCGCUGGCGCCGGCUGGGCAACAUUCCGAGGGGACCGUCCCCUCGGUAAUGGCGAACGGGACCCA | 0.0244 |
| GGCCGGCAUGGUCCCAGCCUCCUCGCUAGCGCCGGCUGGGCGACAUUCCGAGGGGACCGUCCCCUCGGUAAUGGCGAAUGGGACCCA | 0.369 |
| GGCCGGCAUGGUCCCAGCCUCCUCGCUGGCGCCGGCUGGGCAACAUUCCGAGGGGACCGUCCCCUCAGUAAUGGCGAAUGGGACCGA | 0.895 |
| GGCCGGCAAGGUCCCAGCCUCCUAGCUGGCGCCGGCUGGGCAACAUUCCGAGGGGACCGUCCCCUCGGUAAUGGCGAAUGGGACCCA | 0.914 |
| GGCCGGCAUGGUCCCAGCCUCCUCCCUGGCGCCGGCUGGGCAACAUUCCGAGGGGACCGUCCCCUCGCUAAUGGCGAAUGGGACCCA | 0.0639 |
| GGCCGGCAUGGUCCCAGCCUCCUCGCUGGCGCCGGUUGGGCAACAUUCCGAGGGGACCGUCCCCUCGGUAAUGGCGAAUGGGGCCCA | 0.56 |
| GGCCGGCAUGGUCCCAGCCUCCUCGCUGGCGCCGGCUGGGCAACAGUCCGAGGGGACCGUCCCCUCGGUAAUGGCGACUGGGACCCA | 0.277 |
| GGCCGGCAUGGUCCCAGCCUCCUCGCUGGCGCCGGCUGGGCAACAUUCCGAGGGGACCGUCCCCACCGUAAUGGCGAAUGGGACCCA | 0.705 |
| GGCCGGCAUGGUCCCAGCCUCCUCGCUGGCGCCGGCUGGGCAACAUUCCGACGGGACCGCCCCCUCGGUAAUGGCGAAUGGGACCCA | 0.966 |
| GGCCGGCAUGGUCCCAGCCUCCUCGCUGGCGCCGACUGGCCAACAUUCCGAGGGGACCGUCCCCUCGGUAAUGGCGAAUGGGACCCA | 0.163 |

| Variant | self-cleavage |
| --- | --- |
| GGCCGGCAUGGUCCCAGCCUCCUCGCUGGCGCCGGCUGGGCAACAUUCCGAGGGGACCGUGCCCUCGGUAAUGGCGAAUGGGACACA | 0.935 |
| GGCCGGCAUGGUCCCAGCCUGCUCGCUGGCGCCGGCUGGGCAACAUUCCGAGGGGACCGUCCCCUCGAUAAUGGCGAAUGGGACCCA | 0.0707 |
| GGACGGCAUGGUCCCAGCCUCCUCGCUGGCGCCGGCUGGGCAACAUUCCGAGGGGACCGUCCCCUCGGUAAUGGCGAAUUGGACCCA | 0.0893 |
| GGCCGGCAUGGUCCCAGCCUCCUCGCUGGCGCCGGCUGGGCAACAUUCCGAGGGGACGGUCCCCUCGGUAAUGGCGAAUGGGACACA | 1.05 |
| GGCCGGCAUGGUCCCAGCCUCCGCGCUGGCGCCGGCUGGGCAACAUUCCGAGUGGACCGUCCCCUCGGUAAUGGCGAAUGGGACCCA | 0.866 |
| GGCCGGCAUGGUCCCAGCCUCCUCGCUGGCGCCGGCUGGGCAACAUUCCGAGGGUACCGUCCCCUCGGUAAUGGCGGAUGGGACCCA | 0.607 |
| GGCCGGCAUGGUCCCAGCCUCCUCGCUUGCGCAGGCUGGGCAACAUUCCGAGGGGACCGUCCCCUCGGUAAUGGCGAAUGGGACCCA | 0.124 |
| GGCCGGCUUGGUCCCAGCCUCCUCGCUGGCGCCGGCUGGGCAACAUUCCCAGGGGACCGUCCCCUCGGUAAUGGCGAAUGGGACCCA | 0.939 |
| GGCCGGCAUGGUCCCAGUCUCCUCGCUGGCGCCGGCUGGGCAACAUUCCGAGGGGACCGUCCCCUCGGUAAUGGCGAAUGGGAUCCA | 0.44 |
| GGCCGGCAUGGUCCCAGCCUCCUCGCUGGCGCCGGCUGGGCAUCAUUCCGAGGGGACCGUCCCCUCGGUAAUGACGAAUGGGACCCA | 0.261 |
| GGCCGGCAUGGUCCCAGCUUCCUCGCUGGCGCCGGCUGGGCAACAUUUCGAGGGGACCGUCCCCUCGGUAAUGGCGAAUGGGACCCA | 0.0978 |
| GGCCGGCAUGGUCCCAGCCUCCUCGCUGGCGCCGGCCGGGCAACAUUCCGAGGGGGCCGUCCCCUCGGUAAUGGCGAAUGGGACCCA | 1.23 |
| GGCCGGCAUGGUCCCAGCCUCCUCGCUGGCGCCGGCUGGGCAACAUUCCGAGGGGACCGUCCCCUCGGUAAUGGCCAAUGGGAACCA | 1.19 |
| GGCCGGCAUGGUCCCGGACUCCUCGCUGGCGCCGGCUGGGCAACAUUCCGAGGGGACCGUCCCCUCGGUAAUGGCGAAUGGGACCCA | 0.161 |
| GGCCGGCAUGGUCCCAGCCUCCUCGCUGGCGCUGGCUGGGCAACAUUCCGAGGGGACCGUCCCCUCGGUAAUGGCGAAUGGGAUCCA | 0.479 |
| GGCCGGCAUGGUCCCAGCCUCCUCGCUGGCGCCGGCUGGGCAACAUCCCGAGGGCACCGUCCCCUCGGUAAUGGCGAAUGGGACCCA | 0.862 |
| GGCCGGCGUGGUCCCAGCCUCCUCGCUGGCGCCGGCUGGGCAACAUUCCGAGGGGACCGUCCACUCGGUAAUGGCGAAUGGGACCCA | 1.22 |
| GGCCGGCAUGGUCCCAGCCUCCUCGCUGGCGCCGGCUGGGCAACAUUUCGAGGGGACCGUCCCCUCGGGAAUGGCGAAUGGGACCCA | 0.869 |
| GGCCGGCAUGGUCCCAGCCUCGUCGCUGGCGCCGGCUGGGCAACAUACCGAGGGGACCGUCCCCUCGGUAAUGGCGAAUGGGACCCA | 0.122 |
| GGCCGGCAUGGUCCCAGCCUCCUCGCUGGCGCCGGCUGGACAACAUUCCGAGGGGAUCGUCCCCUCGGUAAUGGCGAAUGGGACCCA | 1.13 |
| GGCCGGCAUGGGCCCAGCCUCCUCGCUGGCGCCGGCUGGGCAACAUUCCGAGGGGACCGUCCCCUCGGUAAUGGCGAAUGGGACCGA | 0.59 |
| GGCCGGCAUGGUCCCAGCCUCCUCGCUGGGGCCGGCUGGGCAAUAUUCCGAGGGGACCGUCCCCUCGGUAAUGGCGAAUGGGACCCA | 0.0213 |

| Variant | self-cleavage |
| --- | --- |
| GGCCGGCAUGGUCCCAGCCUCCUCGCUGGCGCCGGCUGGACAACAUUCCGAGGGGACCGUCCCCUCGGUAAUGGCGAAUUGGACCCA | 0.217 |
| GGCCGGCAUGGUCCCAGCCUCCUCGCUGGCGCCAGCUGGGCAACAUUCCGAGGGGCCCGUCCCCUCGGUAAUGGCGAAUGGGACCCA | 0.151 |
| GGCCGGCAUGGUCCCAGCCUCCUCGCUGGCGCCGGCAGGGCAACAUUUCGAGGGGACCGUCCCCUCGGUAAUGGCGAAUGGGACCCA | 0.237 |
| GGCCGGCAUGGUCCCAGCCUCCUCGCUGGUGCCGGCUGGGCAACAUUCGGAGGGGACCGUCCCCUCGGUAAUGGCGAAUGGGACCCA | 0.31 |
| GGCCGGCAUGGUCCCAGCCUCCUCGCUGGCGUCGGCUGGGCAACAUUCCGAGGGGACCGUCCCCUCGGUAAUGGCGAAUGAGACCCA | 0.158 |
| GGCCGGCAUGGUCCCAGCCUCCUCGCUGGCGACUGCUGGGCAACAUUCCGAGGGGACCGUCCCCUCGGUAAUGGCGAAUGGGACCCA | 0.0791 |
| GGCCGGAAUGGUCCCAGCCUCCUCGCUGGCGCCGGCUGGGCAACAUUCCGAGGGGACCGUCCCCUCGGUAAUGGCGAAUGGGACCAA | 0.804 |
| GGCCGGCAUGGUCCCAGCCUCCUCGCUGGCGCCGGCUGGGCAACAUUCCGAGGGGACCGGCCCCUCGGUAAUGGCGCAUGGGACCCA | 0.227 |
| GGCCGGCAUGGUCCCAGCCUCCUCGCUGGCGCCGGCAGGGCAACAUUCCGAGGGGACCGUCCCGUCGGUAAUGGCGAAUGGGACCCA | 0.354 |
| GGCCGGCAUGGUCCCAGCCUCCUCGCUGGCGCCGGCUGGCCAACAUUCCGAGGGGACCGUCCCCUCAGUAAUGGCGAAUGGGACCCA | 0.23 |
| GGCCGGCAUGGUCCCAGCCGCCUCGCUGGCGCCGGCUGGGCAACAUUCCGAGGGGACCGUCCACUCGGUAAUGGCGAAUGGGACCCA | 0.214 |
| GGCCGGCAUGGUCCCAGCCUCCUCGCUGGCGCCGGCUGGGCAACAGUCCGAGGGGACCGUCCCCUUGGUAAUGGCGAAUGGGACCCA | 0.673 |
| GGCCGGCAUGGUCCCAGCCUCCUCGCUGGCGCGGGCUGGGCAACAUUCCGAGGGGACCGUCCCCUCGGUAAUGGCGAAUCGGACCCA | 0 |
| GGCCGGCAUGGUCCCAGCCUACUCGCUGGCGCCGGCUGGGCAACAUUCCGAGGGGACCGUCCCCUCGGUAAUGGCGAAUGGUACCCA | 0.0297 |
| GGCCGGCAUGGUCCCAGCCUCCUCACUGGCGCCGGCUGGGCAACAUUCCGAGGGGACCGUCCCCUCGGUACUGGCGAAUGGGACCCA | 0.185 |
| GGCCUGCAUGGUCCCAGCCUCCUCGCUGGCGUCGGCUGGGCAACAUUCCGAGGGGACCGUCCCCUCGGUAAUGGCGAAUGGGACCCA | 0.104 |
| GGCCGGCAUGGUCCCAGCCUCCUCGCUGGCGCCGGCGGGGCAACAUUCCGAGGGGACCGUCCCCUCGGUUAUGGCGAAUGGGACCCA | 0.229 |
| GGCCGGCAUGGUCCCAGCCUCCUCGCUGGCGCCGGCUGGGCAACAUUCCGAAGGGACCGUCCCCUCGGUAUUGGCGAAUGGGACCCA | 0.923 |
| GGCCGGCAUGGUCCCAGCCUCCUCGCUGGCGCCGGCAGGGCAACAUUCCGAGAGGACCGUCCCCUCGGUAAUGGCGAAUGGGACCCA | 0.0594 |
| GGCCGGCAUGGUCGCAGCCUCCUCGCUGGCGCCGGCUGGGCAACAUUCCUAGGGGACCGUCCCCUCGGUAAUGGCGAAUGGGACCCA | 0.639 |
